Values belong to the molecule of their own block, whether it stands above or below them.
Tests used:
[1] = system: GSK3β and AKT phosphorylation; test: Western blot of GSK3β and AKT phosphorylation in NSCs; type: cell-based, mouse; settings: inhibitor pretreatment
Experimental: Western Blots. Phosphorylated GSK3β (P-Ser9-GSK3β, 1:1000), phosphorylated AKT (P-Ser473-KT, 1:1000), total AKT (T-AKT, 1:1000), Src family kinases (Src, 1:1000), cleaved caspase 3 (1:250), total β-Catenin (1:1000) and phosphorylated src (Tyr416) were purchased from Cell Signaling/New England Biolabs. pp60(c-Src) antibody was purchased from Upstate. Antibody against total GSK3β (T-GSK3β, 1:1000), were purchased from Santa Cruz. The PI3K inhibitor […] (25 μM) and the Src family kinase inhibitor PP2 (20 μM) were purchased from Calbiochem. Cells were preincubated with inhibitors 30 minutes (LY 294002) and 1 hour (PP2) prior to treatment. Cells were lysed for further biochemical analysis. Protein extraction and immunoblotting was performed as previously described.

[2] = target: CD95 (APO-1 or Fas), mouse, endogenous in neural stem cells / brain tissue (mouse) (UniProt P25446); test: cell-based or functional assay
CD95 (APO-1 or Fas), mouse, endogenous in neural stem cells / brain tissue (mouse), sequence (P25446 22-327): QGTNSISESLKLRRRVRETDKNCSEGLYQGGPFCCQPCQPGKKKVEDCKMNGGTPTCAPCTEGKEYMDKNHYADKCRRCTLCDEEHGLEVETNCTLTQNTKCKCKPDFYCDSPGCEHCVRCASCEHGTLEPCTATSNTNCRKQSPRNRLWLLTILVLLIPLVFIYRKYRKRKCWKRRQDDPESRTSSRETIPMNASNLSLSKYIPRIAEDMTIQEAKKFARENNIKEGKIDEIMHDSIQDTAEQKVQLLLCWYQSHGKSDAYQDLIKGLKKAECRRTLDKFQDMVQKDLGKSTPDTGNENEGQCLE

[3] = system: SVZ NSCs; test: β-III-tubulin expression in adult SVZ neural progenitor cells (flow cytometry); type: cell-based, mouse; settings: exogenous BDNF alone; data not shown
Description: Lentiviral infections. SVZ NSCs were infected with the lentiviral vector pEIGW and pEIGW-GSK3βS9A at a multiplicity of infection (MOI) of 5. The plasmids were constructed by replacing the eGFP sequence between the EF1α promotor and the WPRE element in pWPTS-eGFP with the IRES-eGFP cassette form pIRES2-eGFP (Clontech, Germany). The recombinant lentiviral vector pEIGW-GSK3βS9A was constructed using pcDNA3 HA-GSK3βS9A. This vector encodes a constitutively active GSK3β mutant containing a serine-to-alanine substitution at residue 9 (GSK3βS9A). Expression of all transgenes was confirmed in infected cells by FACS analysis of GFP expression. The percentage of infected cells was 70-90%.
siRNA. […] 48 h later pp60 src knockdown was assessed by Western Blot. At the same time, cells were stimulated with CD95L-T4 and analysed after 48 h for β-III-tubulin positive cells.
For staining of intracellular markers, cells were harvested, fixed with 4% PFA for 10 min on ice, washed and permeabilized using 0.1% Saponin (Sigma-Aldrich) in PBS with 10% FCS (SAP). […] Cells were washed again three times with SAP and analysed. […] To quantify DNA fragmentation, cells detached with trypsin were centrifuged, washed and fixed with 70% ethanol at −20° C. for 1 h. […] After final washings, all samples were analysed using a FACS-Calibur (Becton Dickinson) and CellQuest Software (Becton Dickinson). […]

[4] = system: mouse adult SVZ NSCs; test: Gene expression by quantitative real-time PCR in adult SVZ NSCs; type: cell-based; settings: 48 h after stimulation
Experimental: Real-time Quantitative PCR. 24 h cells after plating cells were stimulated with 1 activation unit of CD95L-T4. After 48 h RNA was isolated using the RNeasy Mini Kit (Qiagen). Real-time quantitative PCR was carried out using Sybr Green core kits (Eurogentec) and Uracil-N-glycosylase (Eurogentec). For determining CD95L induction after global ischemia, the hippocampi were dissected out and stored in RNAlater reagent (Ambion). RNA was extracted using the RNeasy Mini Kit (Qiagen). Real-time quantitative PCR was carried out using Sybr Green core kits (Eurogentec) and Uracil-N-glycosylase (Eurogentec). Primers used for quantitative real-time PCR were designed using Primer 3 software (http://fokker.wi.mit.edu/cgi-bin/primer3/primer3_www.cgi).

[5] = system: neural progenitor cells; test: GFAP expression (glial differentiation) in neural progenitor cells; type: cell-based, mouse; settings: data not shown
Experimental: For staining of intracellular markers, cells were harvested, fixed with 4% PFA for 10 min on ice, washed and permeabilized using 0.1% Saponin (Sigma-Aldrich) in PBS with 10% FCS (SAP). Cells were incubated with primary antibody or isotype for 30 min on ice. Cells were washed three time with SAP and incubated with secondary antibody for 30 min on ice. Cells were washed again three times with SAP and analysed. Antibodies used were: anti β-III-tubulin (Chemicon) 1:100, anti GFAP (Chemicon) 1:100 and isotype mouse IgG1 (Sigma) 1:20. Secondary antibody was goat anti-mouse PE 1:100 (Dianova). To quantify DNA fragmentation, cells detached with trypsin were centrifuged, washed and fixed with 70% ethanol at −20° C. for 1 h. Fixed cells were resuspended in a hypotonic lysis buffer (0.1% sodium citrate and 0.1% Triton X-100) containing […] of propidium iodide, incubated at 4° C. overnight. After final washings, all samples were analysed using a FACS-Calibur (Becton Dickinson) and CellQuest Software (Becton Dickinson).
Mouse adult neural stem cell culture. NSCs were isolated as previously described^30. Briefly, 6 week old female C57BL6 mice were sacrificied and tissue from hippocampus, SVZ and spinal cord was dissected out. […]

Molecule: CC(C)(C)n1nc(-c2ccc(Cl)cc2)c2c(N)ncnc21 [PP2]
phosphorylation of GSK3β ([1]; CD95-induced): inhibited phosphorylation
phosphorylation of AKT ([1]; induced by CD95L): inhibited phosphorylation

PI3K activity at 1 min after treatment with 1 U of CD95L-T4 (relative to untreated = 1) (fold of untreated) [2]: 1.38
PI3K activity at 5 min after treatment with 1 U of CD95L-T4 (relative to untreated = 1) (fold of untreated) [2]: 1.53
β-III-tubulin positive cells, NSCs with control siRNA, after CD95L-T4 [2]: 18.1%
β-III-tubulin positive cells, NSCs with transfection reagent only, after CD95L-T4 [2]: 17.1%
Molecule: mus musculus CD95-Ligand-T4 (mmCD95L-T4) (from UniProt P41047 140-279; P10104 458-484)

B1: BDNF: brain-derived nerve factor, a neurotrophin (protein, UniProt P23560 19-247, looked up)
Neurotrophic factor BDNF …: APMKEANIRGQGGLAYPGVRTHGTLESVNGPKAGSRGLTSLADTFEHVIEELLDEDQKVRPNEENNKDADLYTSRVMLSSQVPLEPPLLFLLEEYKNYLDAANMSMRVRRHSDPARRGELSVCDSISEWVTAADKKTAVDMSGGTVTVLEKVPVSKGQLKQYFYETKCNPMGYTKEGCRGIDKRHWNSQCRTTQSYVRALTMDSKKRIGWRFIRIDTSCVCTLTIKRGR
β-III-tubulin expression [3]: did not increase β-III-tubulin expression

B2: CNTF: inducer of astrocytic differentiation (protein, UniProt P26441 1-200, looked up)
Ciliary neurotrophic factor: MAFTEHSPLTPHRRDLCSRSIWLARKIRSDLTALTESYVKHQGLNKNINLDSADGMPVASTDQWSELTEAERLQENLQAYRTFHVLLARLLEDQQVHFTPTEGDFHQAIHTLLLQVAAFAYQIEELMILLEYKIPRNEADGMPINVGDGGLFEKKLWGLKVLQELSQWTVRSIHDLRFISSHQTGIPARGSHYIANNKKM
BDNF expression [4]: induced
Doublecortin like kinase1 (DCLK) expression [4]: no effect on DCLK expression
Jagged1 mRNA levels [4]: decreased
Neurogenin (Ngn1) expression [4]: almost complete loss of Ngn1 mRNA
GFAP expression [5]: enhanced expression of GFAP

Source: US20110300113A1, “Death Receptor CD95 Controls Neurogenesis of Adult Neural Stem Cells in Vivo and in Vitro” (DEUTSCHES KREBSFORSCHUNGSZENTRUM, priority 2006, published 2011)
